# Test results from paper PMC9741609, “A widely distributed family of eukaryotic and bacterial deubiquitinases related to herpesviral large tegument proteins” (Nature Communications, 2022).
# B1: Wc-VTD1 catalytic domain (aa279-494) (enzyme)
# chain: KMPEEEQDSLAAFSRIEANITQYDPLLDNAGKSACTCICLKAAEMLLEASPDQVNAGLIDDILVEGVADYNRFKVGGVVEHTSVENYELNTFELKRLEFRDVDNPFSAEGNPYAGTLDSFAKMMEKASDSKDLPKPVALVMTKSNMTITIVIRPDGKYWLFDPHGTNGKGAYIESCNTDELIKKIKEIFPKTSYPGMTEDENLGFNSFEAYAVRRS
# notes: also called wcw_1294; Waddlia VTD1; source: E. coli Rosetta (DE3) pLysS, purified (HisTrap, SEC)
# Biological target: T1, ubiquitin-PA (C-terminally propargylated ubiquitin 1-75) (human, UniProt P0CG48 1-75, C-terminal propargylamide (PA))
# T1 construct: also called Ub-PA; wildtype Ub-PA; not shown: intein (from the vector pTXB1), C-terminal, cleaved
# Assay: crystal structure; covalent complex: 1.2 mM Wc-VTD1 incubated with 760 µM ubiquitin-PA for 18 h at 4 °C, unreacted proteins removed by SEC; crystals in 0.1 M BisTris propane pH 7.0, 2.0 M ammonium citrate tribasic at 20 °C
# Details: both partners purified
binder,measurement,value
B1,binding result,binds
